# According to patent publication US6635450:
# T1: recombinant mouse Kip1 with a C-terminal hexahistidine sequence (expressed in BL21(DE3) bacteria from pET21a)
# T1 chain: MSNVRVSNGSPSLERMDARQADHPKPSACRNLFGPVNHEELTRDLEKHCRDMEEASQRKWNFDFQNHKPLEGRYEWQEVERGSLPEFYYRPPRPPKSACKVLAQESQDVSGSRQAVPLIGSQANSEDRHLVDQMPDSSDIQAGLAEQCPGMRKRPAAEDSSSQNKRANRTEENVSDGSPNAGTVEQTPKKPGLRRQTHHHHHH
# T2: p27 protein, the 27 kD cyclin E-Cdk2 binding protein of Mv1Lu mink epithelial cells (endogenous)
# T2 chain: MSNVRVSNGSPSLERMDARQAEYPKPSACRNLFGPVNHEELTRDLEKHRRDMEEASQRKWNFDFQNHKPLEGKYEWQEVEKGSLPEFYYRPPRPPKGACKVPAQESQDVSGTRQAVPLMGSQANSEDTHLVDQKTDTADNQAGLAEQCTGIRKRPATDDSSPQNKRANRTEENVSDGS
# T3: Kip1 (28-79), 52-amino acid peptide with a C-terminal hexahistidine tag
# T3 chain: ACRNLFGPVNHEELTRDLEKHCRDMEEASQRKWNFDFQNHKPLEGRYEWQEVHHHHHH
# What was measured:
# [1] = biological target: T1, recombinant mouse Kip1 with a …
# [2] = biological target: T2, p27 protein, the 27 kD cyclin E-Cdk2 …
# [3] = biological target: T3, Kip1 (28-79), 52-amino acid peptide …
Protein,Rb kinase activity (phosphorylation of a GST-Rb fusion product) [1],activation of Cdk2 by cyclin E in extracts (cyclin E-associated histone H1 kinase activity) [2],Rb phosphorylation [3],lowering of the cyclin E threshold for Cdk2 activation (cyclin E-associated histone H1 kinase activity) [2]
"cyclin D2-Cdk4 complex (baculovirus produced, co-infected Sf9 cells) (protein) chain 1: MELLCCEVDPVRRAVPDRNLLEDRVLQNLLTIEERYLPQCSYFKCVQKDIQPYMRRMVATWMLEVCEEQKCEEEVFPLAMNYLDRFLAGVPTPKTHLQLLGAVCMFLASKLKETIPLTAEKLCIYTDNSVKPQELLEWELVVLGKLKWNLAAVTPHDFIEHILRKLPQQKEKLSLIRKHAQTFIALCATDFKFAMYPPSMIATGSVGAAICGLQQDDEVNTLTCDALTELLAKITHTDVDCLKACQEQIEALLLNSLQQFRQEQHNAGSKSVEDPDQATTPTDVRDVDL chain 2: MAATRYEPVAEIGVGAYGTVYKARDPHSGHFVALKSVRVPNGGAAGGGLPVSTVREVALLRRLEAFEHPNVVRLMDVCATSRTDRDIKVTLVFEHIDQDLRTYLDKAPPPGLPVETIKDLMRQFLSGLDFLHANCIVHRDLKPENILVTSNGTVKLADFGLARIYSYQMALTPVVVTLWYRAPEVLLQSTYATPVDMWSVGCIFAEMFRRKPLFCGNSEADQLGKIFDLIGLPPEDDWPREVSLPRGAFAPRGPRPVQSVVPEMEESGAQLLLEMLTFNPHKRISAFRALQHSYLHKEESDAE","Addition of Kip1 to cyclin E-Cdk2, cyclin A-Cdk2 or cyclin D2-Cdk4 complexes inhibited their ability to phosphorylate a GST-Rb fusion product","Addition of cyclin D2-Cdk4 complexes, but neither subunit alone, to extracts from contact inhibited and TGF-β arrested cells allowed cyclin E to activate Cdk2 to a level equivalent to that observed in extracts from proliferating cells",inhibited cyclin E-Cdk2 or cyclin D2:Cdk4 less effectively,
"Cdk4 alone (baculoviral, Sf9 lysate) (protein) MAATRYEPVAEIGVGAYGTVYKARDPHSGHFVALKSVRVPNGGAAGGGLPVSTVREVALLRRLEAFEHPNVVRLMDVCATSRTDRDIKVTLVFEHIDQDLRTYLDKAPPPGLPVETIKDLMRQFLSGLDFLHANCIVHRDLKPENILVTSNGTVKLADFGLARIYSYQMALTPVVVTLWYRAPEVLLQSTYATPVDMWSVGCIFAEMFRRKPLFCGNSEADQLGKIFDLIGLPPEDDWPREVSLPRGAFAPRGPRPVQSVVPEMEESGAQLLLEMLTFNPHKRISAFRALQHSYLHKEESDAE",,"Addition of cyclin D2-Cdk4 complexes, but neither subunit alone, to extracts from contact inhibited and TGF-β arrested cells allowed cyclin E to activate Cdk2",,
"cyclin D1-Cdk4 complex (baculoviral, co-infected Sf9 cells) (protein) chain 1: MEHQLLCCEVETIRRAYPDTNLLNDRVLRAMLKTEETCAPSVSYFKCVQKEIVPSMRKIVATWMLEVCEEQKCEEEVFPLAMNYLDRFLSLEPLKKSRLQLLGATCMFVASKMKETIPLTAEKLCIYTDNSIRPEELLQMELLLVNKLKWNLAAMTPHDFIEHFLSKMPEADENKQTIRKHAQTFVALCATDVKFISNPPSMVAAGSVVAAMQGLNLGSPNNFLSCYRTTHFLSRVIKCDPDCLRACQEQIEALLESSLRQAQQNVDPKATEEEGEVEEEAGLACTPTDVRDVDI chain 2: MAATRYEPVAEIGVGAYGTVYKARDPHSGHFVALKSVRVPNGGAAGGGLPVSTVREVALLRRLEAFEHPNVVRLMDVCATSRTDRDIKVTLVFEHIDQDLRTYLDKAPPPGLPVETIKDLMRQFLSGLDFLHANCIVHRDLKPENILVTSNGTVKLADFGLARIYSYQMALTPVVVTLWYRAPEVLLQSTYATPVDMWSVGCIFAEMFRRKPLFCGNSEADQLGKIFDLIGLPPEDDWPREVSLPRGAFAPRGPRPVQSVVPEMEESGAQLLLEMLTFNPHKRISAFRALQHSYLHKEESDAE",,,,"Equal amounts of cyclin Di-Cdk4 and cyclin D3-Cdk4 complexes, as estimated by immunoblotting of Sf9 lysates, were much less effective in lowering the cyclin E threshold for Cdk2 activation"
"cyclin D3-Cdk4 complex (baculoviral, co-infected Sf9 cells) (protein) chain 1: MELLCCEGTRHAPRAGPDPRLLGDQRVLQSLLRLEERYVPRASYFQCVQKEIKPHMRKMLAYWMLEVCEEQRCEEDVFPLAMNYLDRYLSCVPTRKAQLQLLGTVCLLLASKLRETTPLTIEKLCIYTDQAVAPWQLREWEVLVLGKLKWDLAAVIAHDFLALILHRLSLPSDRQALVKKHAQTFLALCATDYTFAMYPPSMIATGSIGAAVLGLGACSMSADELTELLAGITGTEVDCLRACQEQIEAALRESLREAAQTAPSPVPKAPRGSSSQGPSQTSTPTDVTAIHL chain 2: MAATRYEPVAEIGVGAYGTVYKARDPHSGHFVALKSVRVPNGGAAGGGLPVSTVREVALLRRLEAFEHPNVVRLMDVCATSRTDRDIKVTLVFEHIDQDLRTYLDKAPPPGLPVETIKDLMRQFLSGLDFLHANCIVHRDLKPENILVTSNGTVKLADFGLARIYSYQMALTPVVVTLWYRAPEVLLQSTYATPVDMWSVGCIFAEMFRRKPLFCGNSEADQLGKIFDLIGLPPEDDWPREVSLPRGAFAPRGPRPVQSVVPEMEESGAQLLLEMLTFNPHKRISAFRALQHSYLHKEESDAE",,,,"Equal amounts of cyclin Di-Cdk4 and cyclin D3-Cdk4 complexes, as estimated by immunoblotting of Sf9 lysates, were much less effective in lowering the cyclin E threshold for Cdk2 activation"
